Test results: patent US20090169520A1, “Compounds, Pharmaceutical Compositions and Therapeutic Methods of Preventing and Treating Diseases and Disorders Associated With Amyloid Fibril Formation” (YISSUM RESEARCH DEVELOPMENT COMPANY OF THE HEBREW …, priority 2005, published 2009)
Marks after values point to notes of the source that are not given here.

T1: Amylin (Homo sapiens, UniProt P10997)
T1 sequence (P10997 34-70 limits assumed): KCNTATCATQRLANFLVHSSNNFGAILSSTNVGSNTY


What was measured:
Format in all cases: biochemical
[1] = Rate of hydrolysis of AThCh/BThCh by cholinesterases; details: for Rate of hydrolysis of AThCh/BThCh: average of three experiments
Description: BChE biochemistry—Serum cholinesterase catalytic activity measurements are based on a spectrophotometric method adapted to a microtiter plate assay. Butyrylthiocholine (BTCh, Sigma) hydrolysis rates are measured following 20 minutes incubation with 5×10^−5 M tetraisopropyl pyrophosphoramide (iso-OMPA, Sigma), a specific BChE inhibitor or 10^−5 M 1,5-bis(4-allyldimethylammoniumphenyl) pentan-[…] dibromide (BW284c51, Sigma, A9013), a specific AChE inhibitor. Addition of both inhibitors reduces hydrolysis to the rate of spontaneous hydrolysis measured in control reactions lacking enzyme or substrate, attesting to the specificity of these serum activities. Readings at 405 nm are repeated at 2-minute intervals for 20 minutes. Non-enzymatic hydrolysis of substrate is subtracted from the total rate of hydrolysis. Enzyme activity is calculated using the molar extinction coefficient for 5-thio-2-nitrobenzoate [13,600 M^−1×cm^−1] [Ellman, G. L. et al. (1961) Biochem. Pharmacol. 7:88-95].
In addition, BChE is soluble and thus accessible to circulating ACh. Moreover, the substrate of preference of BChE is different than that of ACHE. Thus, over the range of substrate concentrations 0.1 to 25 mM, the ratio of hydrolysis of AThCh relative to BThCh differs between the enzymes (Table 8, hereinbelow).

Aβ (1-40) peptide = biological target: T2, Aβ (1-40) peptide (Homo sapiens, UniProt P05067); test: In vitro formation of amyloid fibril from Aβ (1-40), Thioflavin T fluorescence; details: for effect on Aβ fibril formation (in words): 33 μM Aβ; for Lag (fold change) / Rate (fold change): relative to No addition, asterisk = statistically significant
T2 construct: synthetic Aβ (1-40) peptide; purchased Biosource, Camarillo, Calif., USA; host or cells: chemical synthesis
T2 sequence (P05067 672-711 limits assumed): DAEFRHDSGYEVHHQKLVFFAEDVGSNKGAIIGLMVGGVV
From the text: In vitro formation of amyloidfibril—In vitro formation of amyloid fibril was in the presence of the synthetic Aβ (1-40) peptide (Biosource, Camarillo, Calif., USA) as a precursor. The reporter molecule was Thioflavin T (ThT) (Sigma, Cat. No. T-3516, Jerusalem, Israel), a benzothiazole dye that undergoes a shift in its excitation spectrum (from 340 nm to 450 nm) when interacting with β-sheet amyloid structures. The resultant ThT fluorescence signal is proportional to the amount of amyloid formed (LeVine, 1993). A stock solution of Aβ in dimethylsulfoxide (DMSO) was diluted with phosphate-buffered saline (PBS) containing 0.02% Na-Azid to a final concentration of 162 μM and 20 μl of the diluted Aβ solution was placed in each well of a 96 multiwell plate (Nunc, Roskilde, Denmark). After 20 minutes of pre-incubation at room temperature of the Aβ samples (20 μl), 80 μl of 1.25 μM ThT in 50 mM glycine buffer, pH 8.5, was added. Incubation was with shaking at 200 rpm for 6 to 8 hours at the noted temperatures. Fluorescence was measured continuously or at 30-40 minute intervals, using a Spectro-fluorometer (Tecan, Maennedorf, Switzerland). Excitation and emission wavelengths were 450 nm and 485 nm, respectively. Enhancement of the fibrillation process by the different combinations of water-dissolved cholinesterases and peptides mimicking fragments thereof, was evaluated by dissecting the time curves into two stages: the lag before the onset of the fluorescence increase (the nucleation process) and the average rate of fluorescence increase at several time points (rate of fibrils formation). Statistics analysis was performed using the Kaleidagraph Software (Reading, Pa., USA).
BChE attenuates amyloid fibrils formation—Amyloid fibril (Aβ) formation was quantified by measuring changes in ThT fluorescence. As predicted, Aβ fibrils were spontaneously formed in vitro provided that the Aβ peptide was present above 5 μM. […] Reactions were performed in the absence or presence of increasing concentrations of purified human BChE (SEQ ID NO:2; FIG. 1a), recombinant ACHE-S (SEQ ID NO:6; FIG. 1b) or both (FIGS. 1c and d). […] Due to the complex kinetics of the fibril formation process the apparent rate of change in ThT fluorescence was repeatedly determined during the exponential phase of increase in its signal (at 390±20 minutes). […] In contrast, addition of similar doses of AChE to Aβ, predictably shortened by half the lag time prior to fibril formation, again in a dose dependent manner (FIG. 1e). The lag period therefore decreased from 240 minutes to 150 minutes and the maximal rate of fibril formation increased from 0.057 to 0.116 fluorescence units (FU)/min for Aβ alone as compared to Aβ in the presence of 0.36 μM AChE-S (FIG. 1b and Table 7, hereinbelow). When increasing doses of hBChE were added to a combined mix of 33 μM Aβ with 0.36 μM AChE-S, a dose-dependent interference with the fibril formation process was observed (FIG. 1c and 2a). Thus, BChE is capable of reducing the rate of fibrillation of Aβ alone, or Aβ which is formed in the presence of AChE.

Amylin = biological target: T1, Amylin; test: Amylin amyloid fibril formation, Thioflavin T fluorescence; details: 20 μM amylin
Description: FIG. 6 is a graph illustrating the effect of BChE in preventing amylin amyloid fibril formation. Amylin at a concentration of 20 μM was incubated with Thiofalvin T (at a concentration of 1 μM) and the formation of amyloid fibril was measured by following the Thiofalvin T fluorescence intensity [excitation (450 nm); emission (485 nm)] in the presence or absence of 0.24 μM BChE (purified from pooled human plasma). Note that the addition of BChE increases the lag time for amylin fibrillation from 30 minutes to 110 minutes.
To test the ability of BChE to prevent amylin amyloid fibril formation, the present inventors have tested the rate of amylin fibrillation (at a concentration of 20 μM) in the presence or absence of 0.24 μM BChE (purified from pooled human serum). As is shown in FIG. 6, BChE completely attenuated the formation of amylin fibrils for 100 minutes, and increased the lag time of amyloid fibril formation from 30 minutes to 110 minutes.

Molecule	Rate of hydrolysis of AThCh/BThCh ([1]; Substrate 0.1 mM)	Rate of hydrolysis of AThCh/BThCh ([1]; Substrate 25.0 mM)	AThCh hydrolysis ratio difference of AChE:BChE ([1]; at 0.1 mM substrate) [fold]	AThCh hydrolysis ratio difference of AChE:BChE ([1]; at 25 mM substrate) [fold]	effect on Aβ fibril formation (in words) (Aβ (1-40) peptide; ThT fluorescence)	Lag (fold change) (Aβ (1-40) peptide)	Rate (fold change) (Aβ (1-40) peptide)	maximal rate of fibril formation (Aβ (1-40) peptide; Aβ in the presence of 0.36 μM AChE-S (Aβ alone 0.057)) [FU/min]	lag period prior to fibril formation (Aβ (1-40) peptide; Aβ in the presence of 0.36 μM AChE-S (Aβ alone 240 minutes)) [min]	time for which formation of amylin fibrils was completely attenuated (Amylin; 0.24 μM BChE) [min]	lag time of amylin amyloid fibril formation (Amylin; 1 μM ThT, 0.24 μM BChE (without BChE 30 minutes)) [min]	BChE capacity to hydrolyze ACh, fold lower than that of AChE ([1]; increased / high ACh concentrations (as in 25 mM)) [fold]	BChE capacity of ACh hydrolysis in the circulation, fold lower than that of AChE ([1]; normal circumstances, low ACh)	time for which fibril formation was totally prevented (Aβ (1-40) peptide; 0.4 μM BChE added to 33 μM Aβ)	concentration needed for complete attenuation of Aβ fibrillation (Aβ (1-40) peptide; attenuation for 400 minutes of incubation, ThT fluorescence) [ng/mL]
hRBC AChE: human erythrocytes ACHE compared with serum BChE in Table 8 (protein) EGREDAELLVTVRGGRLRGIRLKTPGGPVSAFLGIPFAEPPMGPRRFLPPEPKQPWSGVVDATTFQSVCYQYVDTLYPGFEGTEMWNPNRELSEDCLYLNVWTPYPRPTSPTPVLVWIYGGGFYSGASSLDVYDGRFLVQAERTVLVSMNYRVGAFGFLALPGSREAPGNVGLLDQRLALQWVQENVAAFGGDPTSVTLFGESAGAASVGMHLLSPPSRGLFHRAVLQSGAPNGPWATVGMGEARRRATQLAHLVGCPPGGTGGNDTELVACLRTRPAQVLVNHEWHVLPQESVFRFSFVPVVDGDFLSDTPEALINAGDFHGLQVLVGVVKDEGSYFLVYGAPGFSKDNESLISRAEFLAGVRVGVPQVSDLAAEAVVLHYTDWLHPEDPARLREALSDVVGDHNVVCPVAQLAGRLAAQGARVYAYVFEHRASTLSWPLWMGVPHGYEIEFIFGIPLDPSRNYTAEEKIFAQRLMRYWANFARTGDPNEPRDPKAPQWPPYTAGAQQYVSLDLRPLEVRRGLRAQACAFWNRFLPKLLSATDTLDEAERQWKAEFHRWSSYMVHWKNQFDHYSKQDRCSDL	120	7.2	245	36											
ASP63: synthetic AChE-S C-terminal peptide, mimics residues 548-610 in hAChE (ASP63 Synthetic peptide, synthetic AChE-S C-terminal peptide, mimics residues 548-610 in hAChE) PLEVRRGLRAQACAFWNRFLPKLLSATDTLDEAERQWKAEFHRWSSYMVHWKNQFDHYSKQDR					no significant effect on amyloid formation	1.5 fold change	0.7 fold change								
AChE-S: recombinant human ACHE-S, prepared from an ACHE cDNA clone (Sigma) (protein, listed as Homo sapiens) MRPPQCLLHTPSLASPLLLLLLWLLGGGVGAEGREDAELLVTVRGGRLRGIRLKTPGGPVSAFLGIPFAEPPMGPRRFLPPEPKQPWSGVVDATTFQSVCYQYVDTLYPGFEGTEMWNPNRELSEDCLYLNVWTPYPRPTSPTPVLVWIYGGGFYSGASSLDVYDGRFLVQAERTVLVSMNYRVGAFGFLALPGSREAPGNVGLLDQRLALQWVQENVAAFGGDPTSVTLFGESAGAASVGMHLLSPPSRGLFHRAVLQSGAPNGPWATVGMGEARRRATQLAHLVGCPPGGTGGNDTELVACLRTRPAQVLVNHEWHVLPQESVFRFSFVPVVDGDFLSDTPEALINAGDFHGLQVLVGVVKDEGSYFLVYGAPGFSKDNESLISRAEFLAGVRVGVPQVSDLAAEAVVLHYTDWLHPEDPARLREALSDVVGDHNVVCPVAQLAGRLAAQGARVYAYVFEHRASTLSWPLWMGVPHGYEIEFIFGIPLDPSRNYTAEEKIFAQRLMRYWANFARTGDPNEPRDPKAPQWPPYTAGAQQYVSLDLRPLEVRRGLRAQACAFWNRFLPKLLSATDTLDEAERQWKAEFHRWSSYMVHWKNQFDHYSKQDRCSDL						0.6* fold change	2.1* fold change	0.116	150						
BChE: Purified human BChE from human serum (Sigma) (protein, listed as Homo sapiens) MHSKVTIICIRFLFWFLLLCMLIGKSHTEDDIIIATKNGKVRGMNLTVFGGTVTAFLGIPYAQPPLGRLRFKKPQSLTKWSDIWNATKYANSCCQNIDQSFPGFHGSEMWNPNTDLSEDCLYLNVWIPAPKPKNATVLIWIYGGGFQTGTSSLHVYDGKFLARVERVIVVSMNYRVGALGFLALPGNPEAPGNMGLFDQQLALQWVQKNIAAFGGNPKSVTLFGESAGAASVSLHLLSPGSHSLFTRAILQSGSFNAPWAVTSLYEARNRTLNLAKLTGCSRENETEIIKCLRNKDPQEILLNEAFVVPYGTPLSVNFGPTVDGDFLTDMPDILLELGQFKKTQILVGVNKDEGTAFLVYGAPGFSKDNNSIITRKEFQEGLKIFFPGVSEFGKESILFHYTDWVDDQRPENYREALGDVVGDYNFICPALEFTKKFSEWGNNAFFYYFEHRSSKLPWPEWMGVMHGYEIEFVFGLPLERRDNYTKAEEILSRSIVKRWANFAKYGNPNETQNNSTSWPVFKSTEQKYLTLNTESTRIMTKLRAQQCRFWTSFFPKVLEMTGNIDEAEWEWKAGFHRWNNYMMDWKNQFNDYTSKKESCVGL	0.45	0.20			prolonged the lag and reduced the apparent rate of amyloid formation	1.4* fold change	0.3* fold change			100	110	12	ca. 80 fold	over 600 minutes	30000
